Laboratory results reported in article PMC2779590 (2009).

Target: α5β1 integrin (Homo sapiens, UniProt P08648)
Experiment: SPR

Chain of α5β1 integrin (P08648 42-1049, chain 1 of 2): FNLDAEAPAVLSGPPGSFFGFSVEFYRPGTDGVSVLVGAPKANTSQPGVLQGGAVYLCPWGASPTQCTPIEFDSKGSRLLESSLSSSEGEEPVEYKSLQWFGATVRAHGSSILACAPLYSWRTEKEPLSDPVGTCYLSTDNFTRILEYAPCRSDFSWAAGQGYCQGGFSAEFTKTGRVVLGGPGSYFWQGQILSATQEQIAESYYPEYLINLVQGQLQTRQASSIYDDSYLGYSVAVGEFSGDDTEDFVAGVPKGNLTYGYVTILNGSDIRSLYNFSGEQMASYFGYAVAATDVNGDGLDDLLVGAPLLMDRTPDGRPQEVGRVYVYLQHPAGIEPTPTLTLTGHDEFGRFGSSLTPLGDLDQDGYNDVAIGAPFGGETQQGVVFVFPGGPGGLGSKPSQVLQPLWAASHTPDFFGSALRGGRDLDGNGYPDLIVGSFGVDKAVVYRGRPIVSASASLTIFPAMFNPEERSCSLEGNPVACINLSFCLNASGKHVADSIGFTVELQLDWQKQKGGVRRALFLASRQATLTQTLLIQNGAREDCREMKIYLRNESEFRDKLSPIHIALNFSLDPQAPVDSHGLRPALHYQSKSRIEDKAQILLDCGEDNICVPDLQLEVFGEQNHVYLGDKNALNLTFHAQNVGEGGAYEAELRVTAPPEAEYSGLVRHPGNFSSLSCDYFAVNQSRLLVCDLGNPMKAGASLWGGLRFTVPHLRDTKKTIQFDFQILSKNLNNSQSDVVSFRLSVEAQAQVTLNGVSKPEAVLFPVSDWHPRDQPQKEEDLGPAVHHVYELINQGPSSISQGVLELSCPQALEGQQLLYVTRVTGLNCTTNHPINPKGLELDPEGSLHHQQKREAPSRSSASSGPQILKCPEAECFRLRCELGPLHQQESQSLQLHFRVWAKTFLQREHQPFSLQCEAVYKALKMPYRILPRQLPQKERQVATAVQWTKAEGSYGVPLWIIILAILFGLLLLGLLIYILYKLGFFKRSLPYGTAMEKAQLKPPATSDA
Chain of α5β1 integrin (chain, as listed by the source, chain 2 of 2): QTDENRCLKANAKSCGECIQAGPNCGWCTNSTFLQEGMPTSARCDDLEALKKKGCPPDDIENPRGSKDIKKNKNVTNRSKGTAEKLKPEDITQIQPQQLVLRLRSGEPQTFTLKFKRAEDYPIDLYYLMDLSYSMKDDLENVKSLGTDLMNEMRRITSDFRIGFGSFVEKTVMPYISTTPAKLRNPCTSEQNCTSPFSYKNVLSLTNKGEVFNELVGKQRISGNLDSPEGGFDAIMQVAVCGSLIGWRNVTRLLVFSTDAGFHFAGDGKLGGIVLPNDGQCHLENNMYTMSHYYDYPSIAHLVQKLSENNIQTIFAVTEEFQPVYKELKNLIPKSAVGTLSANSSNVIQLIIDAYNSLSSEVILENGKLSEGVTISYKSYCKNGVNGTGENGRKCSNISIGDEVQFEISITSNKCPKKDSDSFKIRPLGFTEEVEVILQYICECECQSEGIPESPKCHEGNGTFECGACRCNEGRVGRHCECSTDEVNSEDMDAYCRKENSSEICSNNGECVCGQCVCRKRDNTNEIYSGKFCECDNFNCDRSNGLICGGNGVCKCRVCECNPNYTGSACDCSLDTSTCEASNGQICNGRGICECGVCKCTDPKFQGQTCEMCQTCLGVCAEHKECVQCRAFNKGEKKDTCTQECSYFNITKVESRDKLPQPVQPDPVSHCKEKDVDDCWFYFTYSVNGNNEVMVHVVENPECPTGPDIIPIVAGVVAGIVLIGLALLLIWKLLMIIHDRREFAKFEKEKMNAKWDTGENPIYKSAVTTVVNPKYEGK

B1: CagA (protein)
chain: MTNETIDQTRTPDQTQSQTAFDPQQFINNLQVAFIKVDNVVASFDPDQKPIVDKNDRDNRQAFDGISQLREEYSNKAIKNPTKKNQYFSDFIDKSNDLINKDNLIDVESSTKSFQKFGDQRYQIFTSWVSHQKDPSKINTRSIRNFMENIIQPPIPDDKEKAEFLKSAKQSFAGIIIGNQIRTDQKFMGVFDESLKERQEAEKNGGPTGGDWLDIFLSFIFNKKQSSDVKEAINQEPVPHVQPDIATTTTDIQGLPPEARDLLDERGNFSKFTLGDMEMLDVEGVADIDPNYKFNQLLIHNNALSSVLMGSHNGIEPEKVSLLYAGNGGFGDKHDWNATVGYKDQQGNNVATLINVHMKNGSGLVIAGGEKGINNPSFYLYKEDQLTGSQRALSQEEIRNKVDFMEFLAQNNTKLDNLSEKEKEKFQNEIEDFQKDSKAYLDALGNDRIAFVSKKDTKHSALITEFNNGDLSYTLKDYGKKADKALDREKNVTLQGSLKHDGVMFVDYSNFKYTNASKNPNKGVGATNGVSHLEAGFNKVAVFNLPDLNNLAITSFVRRNLENKLTAKGLSLQEANKLIKDFLSSNKELAGKALNFNKAVAEAKSTGNYDEVKKAQKDLEKSLRKREHLEKEVEKKLESKSGNKNKMEAKAQANSQKDEIFALINKEANRDARAIAYTQNLKGIKRELSDKLEKISKDLKDFSKSFDEFKNGKNKDFSKAEETLKALKGSVKDLGINPEWISKVENLNAALNEFKNGKNKDFSKVTQAKSDLENSVKDVIINQKVTDKVDNLNQAVSVAKAMGDFSRVEQVLADLKNFSKEQLAQQAQKNEDFNTGKNSELYQSVKNSVNKTLVGNGLSGIEATALAKNFSDIKKELNEKFKNFNNNNNGLKNSTEPIYAKVNKKKTGQVASPEEPIYTQVAKKVNAKIDRLNQIASGLGGVGQAAGFPLKRHDKVDDLSKVGLSASPEPIYATIDDLGGPFPLKRHDKVDDLSKVGRSRNQELAQKIDNLNQAVSEAKAGFFGNLEQTIDKLKDSTKKNVMNLYVESAKKVPASLSAKLDNYAINSHTRINSNIQNGAINEKATGMLTQKNPEWLKLVNDKIVAHNVGSVSLSEYDKIGFNQKNMKDYSDSFKFSTKLNNAVKDIKSGFTHFLANAFSTGYYCLARENAEHGIKNVNTKGGFQKS
With B1 the Kd was 0.15 nM.
